# Data as given in paper PMC9858354 (2023).
# T1: human C-C motif chemokine receptor-like 2 (CCRL2) isoform b, on HEK-huCCRL2 cells (human, UniProt O00421 1-344)
# T1 chain: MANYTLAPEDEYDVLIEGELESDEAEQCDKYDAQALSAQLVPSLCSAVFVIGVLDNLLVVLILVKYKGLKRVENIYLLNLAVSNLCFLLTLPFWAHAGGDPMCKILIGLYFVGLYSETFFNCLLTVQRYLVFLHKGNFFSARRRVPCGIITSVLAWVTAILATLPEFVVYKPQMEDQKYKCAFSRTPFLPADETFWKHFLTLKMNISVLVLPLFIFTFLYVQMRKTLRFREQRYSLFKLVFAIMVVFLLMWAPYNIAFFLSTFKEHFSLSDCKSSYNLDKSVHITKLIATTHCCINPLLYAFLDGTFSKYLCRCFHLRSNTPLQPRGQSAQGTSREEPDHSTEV
# B1: recombinant active human chemerin (residues 21-157), unlabeled (ligand)
# chain: ELTEAQRRGLQVALEEFHKHPPVQWAFQETSVESAVDTPFPAGIFVRLEFKLQQTSCRKRDWKKPECKVRPNGRKRKCLACIKLGSEDKVLGRLVHCPIETQVLREAEEHQETQCLRVQRAGEDPHSFYFPGQFAFS
# Target: T1, human C-C motif chemokine receptor-like …
# Test: SPR
binder,measurement,value
B1,Kd,7.48 nM
